Test results published in paper doi:10.1101/2025.05.09.653011 (bioRxiv, 2025).

Key:
[1] = target: Human wild-type peptidylprolyl cis-trans isomerase A (PPIA) (human, UniProt P62937 2-165); experiment: NMR titration
Human PPIA K76E mutant = Human PPIA K76E mutant (human, UniProt P62937 2-165, K76E); experiment: NMR titration
Human PPIA K76E mutant, sequence (P62937 2-165 K76E): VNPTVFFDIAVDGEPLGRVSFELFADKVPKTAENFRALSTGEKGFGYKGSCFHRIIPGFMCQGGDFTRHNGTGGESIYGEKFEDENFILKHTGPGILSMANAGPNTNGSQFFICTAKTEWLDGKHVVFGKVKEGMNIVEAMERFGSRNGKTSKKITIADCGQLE

Human wild-type peptidylprolyl cis-trans isomerase A (PPIA), sequence (P62937 2-165): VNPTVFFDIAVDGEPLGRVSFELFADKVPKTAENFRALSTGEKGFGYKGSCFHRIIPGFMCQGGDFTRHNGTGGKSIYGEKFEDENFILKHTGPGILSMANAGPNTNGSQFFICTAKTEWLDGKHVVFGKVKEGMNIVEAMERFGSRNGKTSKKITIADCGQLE

- binding result [1]: binds
- binding result (Human PPIA K76E mutant): binds
Binder: Ac-FGPDLPAGD-NH2 [Ac-FGPDLPAGD-NH2]
